Data as given in patent US20250122303A1, “TREATMENT AND PREVENTION OF CANCER USING HER3 ANTIGEN-BINDING MOLECULES” (Hummingbird Bioscience Pte. Ltd., priority 2021, published 2025).
Each block holds one substance with its values, some of them ahead of it.

Columns and labels:
[1] = target: human HER3 expressed on cells (HEK293 HER3 O/E cells) (human) (UniProt P21860); experiment: flow cytometry on HEK293T HER3 O/E cells, 10 ug antibody as printed, FITC-conjugated anti-Fc secondary
[2] = target: human HER3 expressed on cells (HEK293 HER3 O/E cells) (human) (UniProt P21860); experiment: flow cytometry, HEK293 cells overexpressing human HER3, 20 ug/ml antibody, FITC anti-Fc secondary; same antibody on WT HEK293: 1.68
[3] = target: human HER3 expressed on cells (HEK293 HER3 O/E cells) (human) (UniProt P21860); experiment: flow cytometry, HEK293 cells overexpressing human HER3, 20 ug/ml antibody, FITC anti-Fc secondary; same antibody on WT HEK293: 0.07
FcgRIIIA (F158) (human) = FcgRIIIA (F158) (human) (UniProt P08637); experiment: Bio-Layer Interferometry (determined as described in Example 7)
FcRn (human) = FcRn (human) (UniProt P55899); experiment: as above
moFcRn (mouse) = moFcRn (mouse) (UniProt Q61559); experiment: as above
[4] = target: His-tagged FcγRIIIa (V158) (human) (UniProt P08637); experiment: as above
moFcgRIV = experiment: as above

% Parent (HER3 positive) [1]: 0.18%
Substance: hIgG1 Isotype (antibody)

% Parent (HE3 positive) [2]: 13.9%
% Parent (HER3 positive) [3]: 0.12%
Substance: Isotype (antibody)

Kd (FcgRIIIA (F158) (human)): 5380 nM
Kd (FcRn (human)): 16.5 nM
Kd (moFcRn (mouse)): 12.8 nM
Kd [4]: 705 nM
Kd (moFcgRIV): 701 nM
Substance: LJM716 (antibody)
